Data on 36 sequences can be found in the supplement of paper PMC12764529.

Series [1] is described as follows: folding stability dG unfold from trypsin proteolysis; higher = more stable. Summed up:
(§1)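 Designed mini-proteins (under 80 residues, no cysteine) in a PA-tagged cDNA display construct were digested with trypsin and chymotrypsin. Each protease was used at 11 concentrations (threefold dilutions) plus a no-protease condition, followed by sequencing. K50 was inferred by Bayesian fitting of sequencing counts, and unfolding free energy was derived against a sequence-predicted unfolded-state K50 and a shared folded-state K50, per protease or combined. Only designs with AlphaFold2 dimer inter-PAE above 15 were kept.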

Series [2] can be described thus: folding stability dG unfold (combined trypsin and chymotrypsin); higher = more stable. In short, it runs like this: as §1
Series [3] in a line: folding stability dG unfold from chymotrypsin proteolysis; higher = more stable. In short, it runs like this: as §1

± gives the half width of the 95% confidence interval.

Regarding “SAGGSAGGSAGGAAPDDVKIEIEWDVGVMTMEMMNPGGQPHKMYMIMVSLKIEIEPNADSAGGSAGGSAGGS [r10_1212_TrROS]”, the “folding stability dG unfold” value was found to be 3.74 ± 0.25 kcal/mol in series [1], 4.95 ± 0.18 kcal/mol in series [2] and 5.09 ± 0.18 kcal/mol in series [3].
As to “SAGGSAGGSAGGAMAPDEPVERVEVTYKTGRLTFPGKPVLKKEKVVLKFTLTVTDPALLSAGGSAGGSAGGS [r10_745_JUSTAS]”, the “folding stability dG unfold” value is -0.234 ± 0.33 kcal/mol in series [1], 0.0101 ± 0.15 kcal/mol in series [2] and -0.0228 ± 0.28 kcal/mol in series [3].
In the same order, the values of “SAGGSAGGSAGGAMTVETVELPSGEVVTLEYDPASGRVLTTVETPDSVERTEDPLEPPAASAGGSAGGSAGG [r7_63_JUSTAS]” are 0.302 ± 0.015 kcal/mol, -0.0846 ± 0.19 kcal/mol and -0.403 ± 0.11 kcal/mol.
In the same order, the values of “SAGGSAGGSAGGAPDLSLPDVRPRVLVRNPATGKWYEFTSLEELEREIKSGRAEVLEISSAGGSAGGSAGGS [r10_520_TrMRF]” are 0.327 ± 0.088 kcal/mol, 0.573 ± 0.16 kcal/mol and 0.704 ± 0.11 kcal/mol.
Taken in the same sequence, the figures for “SAGGSAGGSAGGAPLVEVEEVETRRVKDPATKRWYRRTRVRVRNKETGEWYELEFVEPLSAGGSAGGSAGGS [r10_535_TrROS_Hall]” were 2.49 ± 0.025 kcal/mol, 2.54 ± 0.048 kcal/mol and 2.599 ± 0.02 kcal/mol.
On to “SAGGSAGGSAGGDAPNTTVTVTLKAEVYYDPSTGALVVKVTAYFPATNTTVTLEFTFPLSAGGSAGGSAGGS [r10_187_TrMRF]”, for which the “folding stability dG unfold” value in series [1] was 3.66 ± 0.24 kcal/mol; in series [2], 4.76 ± 0.72 kcal/mol; in series [3], 4.66 ± 0.25 kcal/mol.
Taken in the same sequence, the figures for “SAGGSAGGSAGGDDDWRIMINIEIWPYPNYVRIRFPIMIIPPDGKLIGSVEVTFWIPANDSAGGSAGGSAGG [r7_812_TrROS]” were 3.2 ± 0.18 kcal/mol, 3.7 ± 0.38 kcal/mol and 3.84 ± 0.37 kcal/mol.
In the same order, the values of “SAGGSAGGSAGGDDNDKEPIGEVTVEVIIPPQIPIRIRWDIYKDPPNGNAMMNMDIDIHSAGGSAGGSAGGS [r10_6_TrROS]” are 0.638 ± 0.12 kcal/mol, 0.719 ± 0.22 kcal/mol and 0.968 ± 0.12 kcal/mol.
Taken in the same sequence, the figures for “SAGGSAGGSAGGDKNGKKELRPEVKIKVKIEAEIEPFRYPNNGMPMWILKISIEITSIDSAGGSAGGSAGGS [r10_877_TrROS]” were 2.96 ± 0.18 kcal/mol, 4.5 ± 0.19 kcal/mol and 4.75 ± 0.18 kcal/mol.
Turning to “SAGGSAGGSAGGDLNDAEIIDIYRDPDSDYYYAVFRGPDGGTYLVRFDPNSDRVEVIPLSAGGSAGGSAGGS [r10_674_TrMRF]”, the “folding stability dG unfold” value in series [1] stood at 2.27 ± 0.1 kcal/mol; in series [2], 3.05 ± 0.059 kcal/mol; in series [3], 3.387 ± 0.024 kcal/mol.
For the sequence “SAGGSAGGSAGGDNTKTLVLVIKVDENVTPEEIKKKLKDLGFKNVKIEKVGNYAVVTVSSAGGSAGGSAGGS [r10_868_TrMRF]”, the “folding stability dG unfold” value worked out at 2.58 ± 0.074 kcal/mol in series [1], 2.92 ± 0.052 kcal/mol in series [2] and 3.149 ± 0.03 kcal/mol in series [3].
Taken in the same sequence, the figures for “SAGGSAGGSAGGDWKMIEFYIPIEPDEPITIEIPDGVRIQIWRVDGYYKVTIMIPLEDISAGGSAGGSAGGS [r10_355_TrROS]” were 2.42 ± 0.14 kcal/mol, 3.17 ± 0.18 kcal/mol and 3.71 ± 0.083 kcal/mol.
Turning to “SAGGSAGGSAGGEEPVTFMVRIPIRRRDPDGNPEPVAEIDINVTMPPEDAERIIKELIKSAGGSAGGSAGGS [r10_574_TrROS]”, the “folding stability dG unfold” value in series [1] was -0.245 ± 0.34 kcal/mol; in series [2] it was -0.326 ± 0.22 kcal/mol; in series [3], -0.547 ± 0.76 kcal/mol.
Taken in the same sequence, the figures for “SAGGSAGGSAGGEEVTIVVKSKEDIEALLPPGWKVTKIEEIYVDKETGEKYYKITVKKESAGGSAGGSAGGS [r10_256_TrROS_Hall]” were 4.23 ± 0.17 kcal/mol, 4.06 ± 0.12 kcal/mol and 3.88 ± 0.062 kcal/mol.
For the sequence “SAGGSAGGSAGGEIKGKKFKIVKIVEVRYDKETKEFYVRIYIEDTNEIITVRLEDLPEELSAGGSAGGSAGG [r7_304_TrROS_Hall]”, the “folding stability dG unfold” value turned out to be 1.83 ± 0.077 kcal/mol in series [1], 2.25 ± 0.18 kcal/mol in series [2] and 2.29 ± 0.025 kcal/mol in series [3].
With “SAGGSAGGSAGGEIKSGDKVVLVFNEDGKGYKAYYEEELEKLLKEDPKIKKVLVVDVPAESAGGSAGGSAGG [r7_118_TrMRF]”, the “folding stability dG unfold” value was -0.173 ± 0.064 kcal/mol in series [1], -0.429 ± 0.22 kcal/mol in series [2] and -1.04 ± 0.77 kcal/mol in series [3].
For the sequence “SAGGSAGGSAGGEIPIKIRPYDPKDGEPKDEHPIPFDTPNGNSLDEIAKQLPPDHFEVDISAGGSAGGSAGG [r17_339_TrROS]”, the figures for the “folding stability dG unfold” value in series [1], in series [2] and in series [3] were 0.382 ± 0.067 kcal/mol, 0.875 ± 0.059 kcal/mol and 1.11 ± 0.018 kcal/mol, respectively.
Taken in the same sequence, the figures for “SAGGSAGGSAGGEKKKIAKKIKEELEKKGIKVKKVETSEDYIYITFEDGSKKKIKIDKGSAGGSAGGSAGGS [r10_169_TrMRF]” were 2.1 ± 0.16 kcal/mol, 1.74 ± 0.2 kcal/mol and 1.6 ± 0.18 kcal/mol.
In the same order, the values of “SAGGSAGGSAGGELKAKFETFPSPYGKVILAEAEFEEPNLLAAIVIDEDGVPHLLVVSPDSAGGSAGGSAGG [r7_187_TrMRF]” are 1.13 ± 0.064 kcal/mol, 0.952 ± 0.12 kcal/mol and 0.858 ± 0.076 kcal/mol.
Taken in the same sequence, the figures for “SAGGSAGGSAGGELVLKIKVKPGEKVKLKLKLFDKNGKLVEEFEVEVEVVKEGDTLYIRLSAGGSAGGSAGG [r7_63_TrROS_Hall]” were 2.69 ± 0.064 kcal/mol, 3.67 ± 0.11 kcal/mol and 4.03 ± 0.052 kcal/mol.
As for “SAGGSAGGSAGGENDWIPIRMEMTFKLPNGVKITIKMEMWVQPDGDILGMRIHDIEIEVPSAGGSAGGSAGG [r7_356_TrROS]”, the “folding stability dG unfold” value in series [1] is 3.6 ± 0.21 kcal/mol; in series [2], 4.54 ± 0.21 kcal/mol; in series [3], 4.75 ± 0.12 kcal/mol.
Taken in the same sequence, the figures for “SAGGSAGGSAGGENPEYKPKLLVLVKLEVNGEYYYREFETLEELENYNDPNLKVVAVADLSAGGSAGGSAGG [r7_793_TrMRF]” were 1.27 ± 0.033 kcal/mol, 1.02 ± 0.083 kcal/mol and 0.653 ± 0.11 kcal/mol.
On to “SAGGSAGGSAGGEPELVFKVRVRTKDGRELEIEVSAEDLEKLLEALPDIEEVEIEEVEPSAGGSAGGSAGGS [r10_437_TrROS_Hall]”, for which the “folding stability dG unfold” value stood at 2.39 ± 0.087 kcal/mol in series [1], 2.6 ± 0.14 kcal/mol in series [2] and 2.68 ± 0.071 kcal/mol in series [3].
In the same order, the values of “SAGGSAGGSAGGFRIKITEIWPISMEMRKPDPENGKWKEQPMTIMIIRIKIENLPPGAKISAGGSAGGSAGG [r17_530_TrROS]” are 2.54 ± 0.048 kcal/mol, 3.41 ± 0.1 kcal/mol and 3.9 ± 0.079 kcal/mol.
In the same order, the values of “SAGGSAGGSAGGFTVTVVEPVDPNDPAFKKLMEERGLPPEEVVATKTLTADSEEEIAALLSAGGSAGGSAGG [r11_83_JUSTAS]” are 0.283 ± 0.099 kcal/mol, 0.238 ± 0.12 kcal/mol and 0.219 ± 0.15 kcal/mol.
In the same order, the values of “SAGGSAGGSAGGGELKELLKKNPGPLLLERPENTVSLILYDPKTGTYTVLTFSPTEPIPLSAGGSAGGSAGG [r7_84_JUSTAS]” are 1.27 ± 0.056 kcal/mol, 1.52 ± 0.14 kcal/mol and 1.69 ± 0.11 kcal/mol.
On to “SAGGSAGGSAGGGITIKGPGSVTVTVPASDVASISVDPATGTVTVEIPATGTTLTVPPASAGGSAGGSAGGS [r10_200_JUSTAS]”, for which the “folding stability dG unfold” value in series [1] stood at 1.03 ± 0.037 kcal/mol; in series [2], 0.604 ± 0.07 kcal/mol; in series [3], 0.238 ± 0.033 kcal/mol.
Taken in the same sequence, the figures for “SAGGSAGGSAGGGKLRIKLYHPETGKISEIEVEVPDKPLEEVLEELEKELGVEVVDASLESAGGSAGGSAGG [r7_590_TrMRF]” were 0.941 ± 0.054 kcal/mol, 1.44 ± 0.14 kcal/mol and 1.68 ± 0.045 kcal/mol.
In the same order, the values of “SAGGSAGGSAGGGKTVVYRFPASLTPEQAVDEITAKVPPNYPVIVEYHPESGTFVAYVPSAGGSAGGSAGGS [r10_163_TrMRF]” are 0.725 ± 0.1 kcal/mol, 0.666 ± 0.15 kcal/mol and 0.743 ± 0.29 kcal/mol.
In the same order, the values of “SAGGSAGGSAGGGLEEIKEAIKKLPENVKEITIKLKDGSTIKIRVEKDKDGKYKITIEPSAGGSAGGSAGGS [r10_1017_TrROS_Hall]” are 2.41 ± 0.3 kcal/mol, 2.5 ± 0.22 kcal/mol and 2.68 ± 0.15 kcal/mol.
For the sequence “SAGGSAGGSAGGGLVPIPVNAILLDENGVPKGTFDGYPLLKAGIPLEEFAKKYGFKVETSAGGSAGGSAGGS [r10_153_TrMRF]”, the “folding stability dG unfold” value in series [1] was -1.08 ± 0.37 kcal/mol; in series [2], -0.552 ± 0.16 kcal/mol; in series [3], -0.57 ± 0.24 kcal/mol.
Taken in the same sequence, the figures for “SAGGSAGGSAGGGMAYTVETEVTLTPDGTRVVRTTVTIEDTEVEETHVTPVAPAAPEGLSAGGSAGGSAGGS [r10_898_JUSTAS]” were -0.806 ± 0.17 kcal/mol, -0.231 ± 0.081 kcal/mol and -0.079 ± 0.06 kcal/mol.
Taken in the same sequence, the figures for “SAGGSAGGSAGGGMIPVSTSETVVPGPSRLVRRTTTTYRDPVTGKLYTTSSTTVLPPAASAGGSAGGSAGGS [r10_190_JUSTAS]” were -0.396 ± 0.12 kcal/mol, 0.963 ± 0.045 kcal/mol and 1.44 ± 0.064 kcal/mol.
Taken in the same sequence, the figures for “SAGGSAGGSAGGGMKVEKEESPDSTVTETITDPSSENTTIVTKEVLPDGSLKVTETKELPSAGGSAGGSAGG [r7_828_JUSTAS]” were -0.224 ± 0.087 kcal/mol, 0.717 ± 0.14 kcal/mol and 0.987 ± 0.06 kcal/mol.
Take “SAGGSAGGSAGGGMPSYVTKTTTTTVKITNTTTGGNSTTTTTSTVTVTTTTLLPPGLLASAGGSAGGSAGGS [r10_300_JUSTAS]”: the results for the “folding stability dG unfold” value in series [1], in series [2] and in series [3] were -0.147 ± 0.052 kcal/mol, 0.835 ± 0.074 kcal/mol and 1.2 ± 0.028 kcal/mol, respectively.
Taken in the same sequence, the figures for “SAGGSAGGSAGGGMPVEMKITLYDPDGTKIGEYTLKVKSEEELKKAVEEKGYNYEVDKESAGGSAGGSAGGS [r10_958_JUSTAS]” were 0.198 ± 0.067 kcal/mol, 0.29 ± 0.1 kcal/mol and 0.17 ± 0.16 kcal/mol.
